Consider one molecule from paper PMC8651678 (Nature Communications, 2021).

Assay [1] addresses T1, human eIF2B(αβδγε)2 decamer, eIF2Bβ Avi-tagged and biotinylated (human, UniProt Q14232;P49770;Q9UI10;Q9NR50;Q13144, biotin on the Avi tag).
T1 construct: also called decameric eIF2B; copies: 2 + 2 + 2 + 2 + 2
The assay can be described thus: SPR. Particulars: both partners purified.

The target in assay [2] is T2, human eIF2B(αβδγε)2 decamer (no capture tag) (human, UniProt Q14232;P49770;Q9UI10;Q9NR50;Q13144).
T2 construct: also called decameric eIF2B; eIF2B(αβγδε)2; copies: 2 + 2 + 2 + 2 + 2
The assay can be described thus: fluorescence polarisation. As to conditions: both partners purified.

B1: Sandfly Fever Sicilian virus (SFSV) NSs protein with a C-terminal 6xHIS tag (natural protein)
chain: MINNNMMNSQYMFDYPAINIDVRCHRLLSSVSYVAYNKFHTHDVSTYEHCEIPLEKLRLGFGRRNSLADFYSLGELPASWGPACYFSSVKPMMYTFQGMASDLSRFDLTSFSRKGLPNVLKALSWPLGIPDCEIFSICSDRFVRGLQTRDQLMSYILRMGDSHSLDECIVQAHKKILQEARRLGLSDEHYNGYDLFREIGSLVCLRLINAEPFDTASSGEALDVRTVIRSYRASDPSTGLTEYGNSLWTPIHSHVDENDESSSDSDF
notes: not shown: 6xHIS, C-terminal, kept
On to B1, for which, in assay [1], the Kd is 30 nM. This molecule returned an EC50 in assay [2] of 72 nM.

The term Kd denotes the free concentration of one partner at which half of the binding sites on the other are occupied at equilibrium, for simple one-to-one binding. High values mean lower affinity, low ones higher affinity. As a reminder, the EC50 is the midpoint of the concentration-response curve. A lower EC50 goes with an effect from little substance.
